Results from the supplement of paper PMC10126150.
± gives the standard deviation of the averaged measurements.

Test system: ATP
Experiment: switch fluorescence ratio, 500 uM ATP over buffer (Cy3 cluster intensity, sum of 5 cycles each) (fold (ratio)); higher = stronger signal-on switching upon ATP binding; sequences stand for … in TCGTCGGCAGCGTCAGATGTGTATAAGAGACAGTTTTTTTTTTTTTTTTTTTTTTTTT…TC
Details: aptamer strand: ATP DNA aptamer (quencher-CACCTGGGGGAGTATTGCGGAGGAAGG + anchor), 100 nM annealed; ATP concentration: 500 uM
Summary of the method: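 Between each of five buffer/ATP cycles, the flow-cell was stripped with NaOH and re-annealed. Each cycle imaged Cy3-labelled switching-strand clusters, annealed to 100 nM quencher-labelled ATP aptamer on a modified Illumina MiSeq flow-cell, first in selection buffer and then after 15 min with 500 uM ATP at 22 °C. The fluorescence ratio is summed target-cycle over summed buffer-cycle Cy3 intensity per cluster, averaged per switch-domain sequence, with clusters outside 100-1000 RFU excluded.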
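Also: ATP exposure 15 min at 22 °C before imaging.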

Row | Sequence | switch fluorescence ratio
1 | GGGGGCGTGG | 1 ± 0.043
2 | GGGGGCGTTG | 1.01 ± 0.02
3 | GGGGGCTTGA | 0.954 ± 0.022
4 | GGGGGGAAAG | 0.98 ± 0.029
5 | GGGGGGAAGA | 0.994 ± 0.025
6 | GGGGGGAATC | 1.01 ± 0.052
7 | GGGGGGACAA | 1 ± 0.013
8 | GGGGGGACCG | 0.987 ± 0.032
9 | GGGGGGACGA | 1.01 ± 0.033
10 | GGGGGGAGGC | 0.995 ± 0.028
11 | GGGGGGCAAG | 0.9858 ± 0.009
12 | GGGGGGCAAT | 1.2 ± 0.099
13 | GGGGGGCAGG | 1.03 ± 0.039
14 | GGGGGGCCGC | 1.03 ± 0.081
15 | GGGGGGCCTT | 1 ± 0.04
16 | GGGGGGCGAT | 1.03 ± 0.049
17 | GGGGGGCTGG | 0.979 ± 0.025
18 | GGGGGGGAAC | 1 ± 0.04
19 | GGGGGGGACT | 1 ± 0.034
20 | GGGGGGGATT | 1.01 ± 0.025
21 | GGGGGGGCGA | 0.987 ± 0.041
22 | GGGGGGGGGC | 1.03 ± 0.098
23 | GGGGGGGTAC | 1.23 ± 0.62
24 | GGGGGGGTAG | 1 ± 0.021
25 | GGGGGGGTTC | 1 ± 0.028

Row | Sequence | switch fluorescence ratio
26 | GGGGGGTACT | 0.994 ± 0.033
27 | GGGGGGTATC | 1.01 ± 0.03
28 | GGGGGGTATG | 0.982 ± 0.022
29 | GGGGGGTGCT | 1.02 ± 0.03
30 | GGGGGGTTTA | 1.01 ± 0.029
31 | GGGGGTAATT | 1.1 ± 0.052
32 | GGGGGTACAT | 0.99 ± 0.011
33 | GGGGGTAGTA | 1.01 ± 0.044
34 | GGGGGTATAT | 1.03 ± 0.019
35 | GGGGGTATCA | 0.98049 ± 0.00015
36 | GGGGGTATCC | 1.03 ± 0.054
37 | GGGGGTCAAT | 1.02 ± 0.04
38 | GGGGGTCAGT | 0.991 ± 0.01
39 | GGGGGTCGCA | 0.947 ± 0.069
40 | GGGGGTGGAA | 0.97 ± 0.028
41 | GGGGGTGGAC | 1.01 ± 0.052
42 | GGGGGTGTGA | 1.02 ± 0.017
43 | GGGGGTTCTA | 1.02 ± 0.011
44 | GGGGGTTGAG | 1.03 ± 0.024
45 | GGGGTAAAAA | 1.01 ± 0.018
46 | GGGGTAAAGT | 1.01 ± 0.028
47 | GGGGTAATCT | 0.99977 ± 0.00079
48 | GGGGTAATTC | 1.06 ± 0.039
49 | GGGGTACACG | 0.979 ± 0.027
50 | GGGGTACACT | 0.9949 ± 0.0056

Row | Sequence | switch fluorescence ratio
51 | GGGGTAGAAC | 0.992 ± 0.028
52 | GGGGTAGAAT | 1.03 ± 0.061
53 | GGGGTATCGC | 1.002 ± 0.0095
54 | GGGGTATGAC | 1.02 ± 0.015
55 | GGGGTATGGT | 1 ± 0.036
56 | GGGGTCAGTT | 0.973 ± 0.025
57 | GGGGTCCCAG | 0.971 ± 0.03
58 | GGGGTCGGTC | 1 ± 0.023
59 | GGGGTCGTTT | 0.9947 ± 0.0067
60 | GGGGTCTAAA | 1.009 ± 0.0063
61 | GGGGTCTTGG | 1.03 ± 0.038
62 | GGGGTCTTTT | 0.999 ± 0.033
63 | GGGGTGATTG | 0.979 ± 0.0077
64 | GGGGTGGATT | 0.974 ± 0.013
65 | GGGGTGGCAA | 1.008 ± 0.0037
66 | GGGGTGGCCT | 1 ± 0.027
67 | GGGGTGGCGT | 1.07 ± 0.1
68 | GGGGTGGGAT | 0.998 ± 0.016
69 | GGGGTGGGGG | 1.01 ± 0.039
70 | GGGGTGGGTC | 0.974 ± 0.012
71 | GGGGTGGGTT | 0.985 ± 0.036
72 | GGGGTGGTAT | 0.99 ± 0.044
73 | GGGGTGGTTT | 0.951 ± 0.037
74 | GGGGTGTGAG | 0.989 ± 0.017
75 | GGGGTGTTCT | 1.02 ± 0.045

Row | Sequence | switch fluorescence ratio
76 | GGGGTGTTGC | 0.999 ± 0.056
77 | GGGGTTACTG | 0.993 ± 0.034
78 | GGGGTTAGTC | 1.02 ± 0.0085
79 | GGGGTTCAAT | 0.976 ± 0.044
80 | GGGGTTCATC | 0.995 ± 0.022
81 | GGGGTTCGTT | 1.01 ± 0.072
82 | GGGGTTGAGT | 1.001 ± 0.005
83 | GGGGTTGCCG | 0.992 ± 0.034
84 | GGGGTTGCGT | 0.996 ± 0.034
85 | GGGGTTGGCA | 1.03 ± 0.014
86 | GGGGTTGGCC | 0.986 ± 0.018
87 | GGGGTTGTTG | 0.988 ± 0.035
88 | GGGGTTTGCC | 0.9678 ± 0.0086
89 | GGGGTTTGCG | 0.973 ± 0.011
90 | GGGGTTTGGG | 0.974 ± 0.028
91 | GGGGTTTGTC | 0.95 ± 0.049
92 | GGGGTTTGTG | 0.997 ± 0.037
93 | GGGGTTTTCT | 1.01 ± 0.016
94 | GGGGTTTTTT | 0.986 ± 0.026
95 | GGGTAAAGCT | 1.14 ± 0.018
96 | GGGTAAAGTC | 0.994 ± 0.047
97 | GGGTAAATTA | 0.989 ± 0.042
98 | GGGTAAGAAG | 0.971 ± 0.013
99 | GGGTAATTAG | 1.03 ± 0.041
100 | GGGTAATTGG | 0.986 ± 0.018

Row | Sequence | switch fluorescence ratio
101 | GGGTACAGAT | 0.986 ± 0.0099
102 | GGGTACAGCT | 1.014 ± 0.0047
103 | GGGTACCGAA | 0.981 ± 0.027
104 | GGGTACGGAA | 1.106 ± 0.01
105 | GGGTAGAGGG | 0.987 ± 0.049
106 | GGGTAGAGGT | 1.003 ± 0.0062
107 | GGGTAGATGC | 1.01 ± 0.052
108 | GGGTAGGAAG | 0.971 ± 0.024
109 | GGGTAGGCGC | 1.04 ± 0.029
110 | GGGTAGGGAA | 0.998 ± 0.016
111 | GGGTAGGGTG | 1.04 ± 0.055
112 | GGGTAGGTGC | 1.13 ± 0.044
113 | GGGTAGTCAG | 0.995 ± 0.017
114 | GGGTAGTGGT | 1.01 ± 0.038
115 | GGGTATACAG | 1.01 ± 0.053
116 | GGGTATACCG | 1.018 ± 0.0017
117 | GGGTATAGTA | 0.973 ± 0.044
118 | GGGTATATGG | 1.01 ± 0.022
119 | GGGTATATTG | 0.983 ± 0.011
120 | GGGTATCTTG | 1 ± 0.003
121 | GGGTATGATG | 1.01 ± 0.044
122 | GGGTATTGGG | 0.99 ± 0.021
123 | GGGTCAACGT | 0.987 ± 0.015
124 | GGGTCAAGTC | 0.968 ± 0.04
125 | GGGTCAGAGA | 0.987 ± 0.019

Row | Sequence | switch fluorescence ratio
126 | GGGTCAGGTT | 1.01 ± 0.029
127 | GGGTCATGTA | 1.008 ± 0.0027
128 | GGGTCATTGT | 1.03 ± 0.032
129 | GGGTCCCGGG | 1.0586 ± 0.00036
130 | GGGTCCGGCG | 0.995 ± 0.034
131 | GGGTCGGCTA | 1.02 ± 0.035
132 | GGGTCGGGAA | 1.006 ± 0.0032
133 | GGGTCGGGGA | 0.97587 ± 0.00076
134 | GGGTCGGGGT | 0.99 ± 0.029
135 | GGGTCTACCG | 0.991 ± 0.015
136 | GGGTCTGCGC | 1.03 ± 0.024
137 | GGGTCTTCGT | 0.968 ± 0.039
138 | GGGTGAAGGG | 0.974 ± 0.021
139 | GGGTGACGGG | 1.01 ± 0.074
140 | GGGTGATTCC | 1.03 ± 0.014
141 | GGGTGATTGC | 0.964 ± 0.011
142 | GGGTGCCCAT | 1.03 ± 0.021
143 | GGGTGCGATT | 1.03 ± 0.025
144 | GGGTGCTTGG | 1.0239 ± 0.00098
145 | GGGTGGCGGT | 1.01 ± 0.021
146 | GGGTGGGATA | 1.02 ± 0.044
147 | GGGTGGGCTT | 0.997 ± 0.032
148 | GGGTGGGGAG | 0.984 ± 0.045
149 | GGGTGGGGCT | 1.01 ± 0.031
150 | GGGTGGGGG | 1.01 ± 0.033

Row | Sequence | switch fluorescence ratio
151 | GGGTGGGGGC | 1.02 ± 0.037
152 | GGGTGGGGTA | 0.971 ± 0.036
153 | GGGTGGGTAG | 0.955 ± 0.037
154 | GGGTGGGTCA | 1.01 ± 0.048
155 | GGGTGGTCAG | 1.01 ± 0.023
156 | GGGTGGTGGA | 1.01 ± 0.019
157 | GGGTGTAAAA | 1 ± 0.022
158 | GGGTGTAAGG | 0.998 ± 0.022
159 | GGGTGTAGTG | 0.988 ± 0.024
160 | GGGTGTATCG | 0.9943 ± 0.0036
161 | GGGTGTCCTT | 0.998 ± 0.042
162 | GGGTGTGGGA | 0.997 ± 0.017
163 | GGGTGTGTGT | 1.02 ± 0.017
164 | GGGTGTTTAG | 1.01 ± 0.027
165 | GGGTGTTTGC | 1.02 ± 0.035
166 | GGGTGTTTTC | 0.998 ± 0.034
167 | GGGTGTTTTT | 0.98 ± 0.0073
168 | GGGTTAACGG | 1 ± 0.018
169 | GGGTTAAGCA | 0.9961 ± 0.0055
170 | GGGTTAAGGC | 1.01 ± 0.062
171 | GGGTTAATCG | 1 ± 0.022
172 | GGGTTAATTG | 0.983 ± 0.017
173 | GGGTTAGAAA | 1 ± 0.043
174 | GGGTTAGGGC | 0.988 ± 0.023
175 | GGGTTAGGTG | 1.14 ± 0.065

Row | Sequence | switch fluorescence ratio
176 | GGGTTAGGTT | 1.01 ± 0.064
177 | GGGTTATCAG | 0.981 ± 0.035
178 | GGGTTATGCG | 1.04 ± 0.027
179 | GGGTTCCTGG | 0.995 ± 0.028
180 | GGGTTCGGAA | 0.9972 ± 0.0093
181 | GGGTTCGGGA | 0.991 ± 0.027
182 | GGGTTGAAGT | 0.985 ± 0.008
183 | GGGTTGACGG | 0.986 ± 0.057
184 | GGGTTGGACT | 0.999 ± 0.012
185 | GGGTTGGCGT | 0.956 ± 0.012
186 | GGGTTGGGCC | 0.989 ± 0.014
187 | GGGTTGGTAG | 0.984 ± 0.026
188 | GGGTTGTAGT | 1.02 ± 0.032
189 | GGGTTGTGGA | 1 ± 0.029
190 | GGGTTGTGGG | 1 ± 0.043
191 | GGGTTGTTGT | 0.982 ± 0.014
192 | GGGTTTAAAA | 0.985 ± 0.044
193 | GGGTTTAATT | 0.999 ± 0.011
194 | GGGTTTAGGT | 0.981 ± 0.011
195 | GGGTTTGAAG | 1 ± 0.025
196 | GGGTTTGATC | 0.9749 ± 0.008
197 | GGGTTTTCAT | 0.993 ± 0.012
198 | GGGTTTTGTT | 1.02 ± 0.029
199 | GGGTTTTTCC | 1.1 ± 0.18
200 | GGTAAAAGTT | 1.01 ± 0.022
